# From paper PMC6957217, “Molecular anatomy of the receptor binding module of a bacteriophage long tail fiber” (PLoS Pathogens, 2019)
# B1: Phage T4 LTF needle (gp37; amino acids 799–1026), wild type (domain or fragment)
# chain: not shown
# notes: bacteriophage T4 long tail fiber protein gp37, needle (domains D10 and D11), amino acids 799-1026; pCDF Duet-1 MCS1; also called gp37 needle; WT gp37; source: E. coli BL21 (DE3) pLysS, co-expressed with chaperones gp38 and gp57A, purified (HisTrap, Superdex-200 SEC, trimer peak)
# Target: the molecule itself
# Experiment: SEC; Hi-Load 16/60 Superdex-200 in PBS pH 7.4; trimers eluted at the expected 81 kDa size
protein,measurement,value
B1,stoichiometry N,3
